Patent publication US20260116966A1 (KEYMED BIOSCIENCES CHENGDU, published 2026)

Experiments:
[1] = biological target: T1, Cynomolgus GPRC5D (Cynomolgus, UniProt Q9NZD1 1-343 (human entry)); test: flow cytometry on CHO-cyGPRC5D cells
T1 construct: Full length, on stably transfected cells (HEK293-cyGPRC5D, CHO-cyGPRC5D); also called cyGPRC5D
T1 chain: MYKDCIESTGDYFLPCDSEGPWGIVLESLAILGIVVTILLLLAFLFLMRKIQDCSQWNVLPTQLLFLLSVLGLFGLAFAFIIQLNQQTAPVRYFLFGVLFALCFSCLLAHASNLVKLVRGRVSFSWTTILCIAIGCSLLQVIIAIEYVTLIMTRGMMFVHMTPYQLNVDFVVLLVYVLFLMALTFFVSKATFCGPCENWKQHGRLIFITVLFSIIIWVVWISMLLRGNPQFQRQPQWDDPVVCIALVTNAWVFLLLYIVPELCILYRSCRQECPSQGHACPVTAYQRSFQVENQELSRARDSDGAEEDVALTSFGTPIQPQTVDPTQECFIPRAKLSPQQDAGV
Method: (§1) The binding of the antibodies to human and Cynomolgus GPRC5D stably transfected cells was detected by flow cytometry. […] Then, 100 μl/well of the cell suspension was added to a 96-well U-shaped plate, and centrifuged at 300 g for 5 min. The supernatant was discarded. 100 μL per well of serially diluted antibody was added (initial concentration: 200 nM, 3-fold dilution, 12 gradients), and incubated at 4° C. for 45 min. The secondary antibody 50 μL/well of Alexa Fluro647 labeled goat anti-human IgG Fc (1:300 dilution) was added, incubated on ice for 45 min, and detected by flow cytometry.

[2] = biological target: T2, human GPRC5D (human, UniProt Q9NZD1 1-345); test: flow cytometry on CHO-hGPRC5D cells
T2 construct: Full length, on stably transfected cells (HEK293-hGPRC5D, CHO-hGPRC5D); Also used here for the endogenous GPRC5D of the GPRC5D+ myeloma lines MM.1R, MM.1S and NCI-H929; also called hGPRC5D; G-protein-coupled receptor family C group 5 member D
T2 sequence (Q9NZD1 whole entry): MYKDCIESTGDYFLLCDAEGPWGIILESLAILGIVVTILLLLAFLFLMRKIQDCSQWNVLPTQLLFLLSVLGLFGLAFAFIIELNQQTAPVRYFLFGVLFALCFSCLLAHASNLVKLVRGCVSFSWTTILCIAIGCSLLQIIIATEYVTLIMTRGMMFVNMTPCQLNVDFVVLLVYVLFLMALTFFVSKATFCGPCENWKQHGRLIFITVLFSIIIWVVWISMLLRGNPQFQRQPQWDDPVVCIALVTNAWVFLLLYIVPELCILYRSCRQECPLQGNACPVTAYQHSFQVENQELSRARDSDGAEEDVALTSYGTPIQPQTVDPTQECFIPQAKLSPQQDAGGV
Method: as §1

[3] = biological target: T2, human GPRC5D; test: flow cytometry, MM.1R cells
Method: The cell suspension was adjusted to a concentration of 5×10⁵ cells/mL, and 100 μL per well was added to a 96-well U-shaped plate, centrifuged at 300 g for 5 min. The supernatant was discarded. 100 μL per well of serially diluted antibody was added (initial concentration: 200 nM, 3-fold dilution, 10 gradients), and incubated at 4° C. for 60 min. The primary antibody was washed away, and 50 μL/well Alexa Fluro647 labeled goat anti-human IgG FC (1:300 dilution) was added, and incubated for 20 min. After washing once, 50 μL/well of PI was added, incubated for 5 min, and detected by flow cytometry.

[4] = biological target: T2, human GPRC5D; test: cell-based or functional assay

B1: anti-GPRC5D chimeric antibody 6H1 (antibody, V domains shown)
VH: QAYLQQSGAELVRSGASVKMSCKASGYTFTSYNMHWVKQTPGQGLEWIGYIYPGNGGTNYNQKFKGKATLTADTSSSTAYMQISSLTSEDSAVYFCARGYGYRYWYFDVWGTGTTVTVSS
VL: QIVLTQSPAIMSASPGEKVTMTCSASSSVSYMHWYQQKSGTSPKRWIYDTSKLASGVPARFSGSGSGTSYSLTISSMEAEDAATYYCQQWNSKPPTFGSGTKLEIK
B1: binds [1]; binds [2].

B2: anti-GPRC5D chimeric antibody 2E1 (antibody, V domains shown)
VH: QVQLQQPGAELVKPGASVKLSCKASGYTFTRYWMHWVKQRPGQGLDWIGEFNPSNGRINYNEKFKNKATLTIDKSSSTAYMQLSSLTSEDSAVYYCTRGFAYWGQGTLVTVSA
VL: QIVLTQSPAIMSASPGERVTMTCSASSTVSYIHWYQQKSGTSPKRWIYDTSKLASGVPARFSGSGSGTSYSLTISSMEAEDAATYYCQQWTTNPWTFGGGTKLEIK
B2: binds [1]; binds [2].

B3: anti-GPRC5D chimeric antibody 4B1 (antibody, V domains shown)
VH: QAYLQQSGAELVRSGASVKMSCKASGYTFTSYNMHWVKQTPGQGLEWIGYIYPGNGGTNYNQNFKGKATLTADTSSSTAYMQISSLTSEDSAVYFCARGYGYRYWYFDVWGAGTTVTVSS
VL: QIVLTQSPAIMSASPGEKVTMTCSASSSVSYMHWYQQKSGTSPKRWIYDTSKLASGVPVRFSGSGSGTSYSLTISSMEAEDAATYYCQQWSNYPPTFGSGTKLEIK
With B3 the binding result [1] was “binds” and the “EC50 (read off the curve)” value [2] was ~600 pM.

B4: anti-GPRC5D chimeric antibody 8D1 (antibody, V domains shown)
VH: QVQLQQPGAELVKPGASVKLSCKASGYTFTSYYMYWVKQRPGQGLEWIGGINPSNGGTKYNEKFKSKATLTVDKSSSTAFMQLSSLTSEDSAVYYCTRGSLRSYYYAMDYWGQGTSVTVSS
VL: DIQMTQTTSSLSASLGDRVTISCRASQDISNYLNWYQQKPDGTVKLLIYYTSRLHSGVPSRFSGSGSGTDYSLTISNLEQEDLATYFCQQGYSLPYTFGGGTKLEIK
B4 was tested, and the “EC50 (read off the curve)” value [1] was ~400 pM and the binding result [2] was “binds”.

B5: 4D3 × CD3 GPRC5D×CD3 κλ bispecific antibody (bispecific antibody, human IgG4, V domains shown)
VH 1: QVQLVQSGAEVKKPGSSVKVSCKASGYTFTNFPIEWMREAPGQGLEWMGNFHPYNDVTKYNEKFQGRVTLTVDKSSSTVYMELSSLRSEDTAVYYCALITRGYWGQGTLVTVSS
VL 1: DIVMTQSPDSLAVSLGERATINCKSSQSLLYSRNQKNSLAWYQKKPGQPPKLLIYWASTRESGVPDRFSGSGSGTDFTLTISSLQAEDVAVYYCQQYYSYPLTFGQGTKLEIK
VH 2: EVQLVESGGGLVQPGGSLRLSCAASGFTFNTYAMNWVRKAPGKGLEWVGRIRSKYNNYATYYADSVKDRFTISRDDSKNSLYLQMNSLKTEDTAVYYCVRHGNFGNSYVSWFAYWGQGTLVTVSS
VL 2: QAVVTQEPSLTVSPGGTVTLTCRSSTGAVTTSNYANWVQEKPGQAPRGLIGGTNKRAPWTPARFSGSLLGGKAALTITGAQAEDEAEYYCVLWYSNLWVFGGGTKLTVL
notes: Human IgG4 knob-into-hole Fc with Ser228Pro, Leu235Glu, Pro329Ala
In the case of B5, the EC50 [3] is reported as 10600 pM, the “Maximum fluorescence intensity (MFI, 200 nM)” value (shortened to “Maximum fluorescence intensity”) [3] is reported as 110000 MFI and the “TDCC EC50 (pM), MM.1R” value [4] is reported as 6.18 pM.

B6: 8D1 × CD3 GPRC5D×CD3 κλ bispecific antibody (bispecific antibody, human IgG4, V domains shown)
VH 1: QVQLVQSGAEVKKPGSSVKVSCKASGYTFTSYYMYWVREAPGQGLEWMGGINPSNGGTKYNEKFQGRVTLTVDKSSSTAYMELSSLRSEDTAVYYCTRGSLRSYYYAMDYWGQGTLVTVSS
VL 1: DIQMTQSPSSLSASVGDRVTITCQASQDISNYLNWYQKKPGKAPKLLIYYTSRLHSGVPSRFSGSGSGTDYTFTISSLQPEDIATYFCQQGYSLPYTFGQGTKLEIK
VH 2: EVQLVESGGGLVQPGGSLRLSCAASGFTFNTYAMNWVRKAPGKGLEWVGRIRSKYNNYATYYADSVKDRFTISRDDSKNSLYLQMNSLKTEDTAVYYCVRHGNFGNSYVSWFAYWGQGTLVTVSS
VL 2: QAVVTQEPSLTVSPGGTVTLTCRSSTGAVTTSNYANWVQEKPGQAPRGLIGGTNKRAPWTPARFSGSLLGGKAALTITGAQAEDEAEYYCVLWYSNLWVFGGGTKLTVL
notes: as for B5
With B6 the EC50 [3] was 3340 pM, the “Maximum fluorescence intensity” value [3] was 89000 MFI and the “TDCC EC50 (pM), MM.1R” value [4] was 32.9 pM.

B7: 15D1 × CD3 GPRC5D×CD3 κλ bispecific antibody (bispecific antibody, human IgG4, V domains shown)
VH 1: QVQLVQSGAEVKKPGSSVKVSCKASGYTFTNYVMHWVKEKPGQGLEWMGYINPYNDGTKYNEKFQGRVTLTSDKSSNTAYMELSSLRSEDTAVYYCARGGVRRYFDYWGQGTLVTVSS
VL 1: DIQMTQSPSSLSASVGDRVTITCRASQDIGSNLNWLQKEPGKAPKRLIYATSSLDSGVPSRFSGSRSGSDYTLTISSLQPEDFATYYCLQYASFPYTFGQGTKLEIK
VH 2: EVQLVESGGGLVQPGGSLRLSCAASGFTFNTYAMNWVRKAPGKGLEWVGRIRSKYNNYATYYADSVKDRFTISRDDSKNSLYLQMNSLKTEDTAVYYCVRHGNFGNSYVSWFAYWGQGTLVTVSS
VL 2: QAVVTQEPSLTVSPGGTVTLTCRSSTGAVTTSNYANWVQEKPGQAPRGLIGGTNKRAPWTPARFSGSLLGGKAALTITGAQAEDEAEYYCVLWYSNLWVFGGGTKLTVL
notes: as for B5
With B7 the “Maximum fluorescence intensity” value [3] was 12800 MFI and the “TDCC EC50 (pM), MM.1R” value [4] was 96.5 pM.

B8: anti-GPRC5D chimeric antibody 15D1 (antibody, V domains shown)
VH: EVQLQQSGPELGKPGASVKMSCKASGYTFTNYVMHWVKQKPGQGLEWIGYINPYNDGTKYNEKFKGKATLTSDKSSNTAYMELSSLTSEDSAVYYCARGGVRRYFDYWGQGTTLTVSS
VL: DIQMTQSPSSLSASLGERVSLTCRASQDIGSNLNWLQQEPDGTIKRLIYATSSLDSGVPKRFSGSRSGSDYSLTISSLESEDFVDYYCLQYASFPYTFGGGTKLEIK
For B8, the binding result [1] was “binds” and the “EC50 (read off the curve)” value [2] was ~100 pM.

B9: anti-GPRC5D chimeric antibody 2F1 (antibody, V domains shown)
VH: EVLLQQSGPELVKPGTSMKISCKASGYSFTGYTMNWVKQRHGKNLEWIGLINPYNGGTRYNQKFKGRATLTVDKSSSTAYMELLSLTSEDSAVYYCARWALRYGMDYWGQGTSVTVSS
VL: DIVMTQSQKFMSTSVGDRVSVTCKASQNVGTNVAWYQQKPGHSPKALIYSASYRNSGVPDRFTGSGSGTDFTLTISNVQSEDLAEYFCQQYNSYLLTFGGGTKLELK
B9: binds [1]; binds [2].
